Assay in all cases: SPR, KD relative to WT C2;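 note: biacore SPR at 37 °C, anti-C2 mAbs captured via immobilised goat anti-human IgG, C2 alanine or serine surface mutants as analytes, 1:1 model fitted, double-referenced sensograms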
On the technique in general: In SPR one partner is held on a chip, and binding of the other changes the refractive index at the surface.

For experiment [1], the target named is T1, human C2 D419A (human, UniProt P06681 21-752).
T1 sequence: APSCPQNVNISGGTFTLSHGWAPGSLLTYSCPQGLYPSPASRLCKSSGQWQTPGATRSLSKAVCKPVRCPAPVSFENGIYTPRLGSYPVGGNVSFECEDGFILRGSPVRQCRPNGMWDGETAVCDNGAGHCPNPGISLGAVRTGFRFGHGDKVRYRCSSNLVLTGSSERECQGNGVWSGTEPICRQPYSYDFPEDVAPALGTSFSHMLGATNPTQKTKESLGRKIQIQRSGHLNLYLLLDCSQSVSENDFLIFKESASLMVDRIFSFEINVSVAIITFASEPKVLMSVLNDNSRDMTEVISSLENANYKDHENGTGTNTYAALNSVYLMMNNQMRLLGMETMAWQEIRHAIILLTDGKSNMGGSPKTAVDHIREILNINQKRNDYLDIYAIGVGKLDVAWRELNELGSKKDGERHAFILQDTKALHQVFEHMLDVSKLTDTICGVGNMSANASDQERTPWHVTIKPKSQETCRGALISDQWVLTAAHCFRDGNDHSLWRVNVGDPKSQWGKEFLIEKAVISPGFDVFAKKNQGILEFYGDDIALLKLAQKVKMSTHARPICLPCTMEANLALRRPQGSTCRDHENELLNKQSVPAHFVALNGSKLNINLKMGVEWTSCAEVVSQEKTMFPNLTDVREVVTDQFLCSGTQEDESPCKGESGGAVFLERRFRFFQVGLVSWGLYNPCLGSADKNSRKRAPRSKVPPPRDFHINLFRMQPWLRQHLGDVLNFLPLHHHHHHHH

For experiment [2], the target named is T2, human C2 K329A (human, UniProt P06681 21-752).
T2 sequence: T1 sequence with K309A, A399D

Experiment [3] addresses T3, human C2 N327A (human, UniProt P06681 21-752).
T3 sequence: T1 sequence with N307A, A399D

Experiment [4] has as its target T4, human C2 K531A (human, UniProt P06681 21-752).
T4 sequence: T1 sequence with A399D, K511A

Residue numbers refer to the chain shown, from its start.

B1: RF16-226 (antibody, human IgG4 S228P, lambda)
heavy: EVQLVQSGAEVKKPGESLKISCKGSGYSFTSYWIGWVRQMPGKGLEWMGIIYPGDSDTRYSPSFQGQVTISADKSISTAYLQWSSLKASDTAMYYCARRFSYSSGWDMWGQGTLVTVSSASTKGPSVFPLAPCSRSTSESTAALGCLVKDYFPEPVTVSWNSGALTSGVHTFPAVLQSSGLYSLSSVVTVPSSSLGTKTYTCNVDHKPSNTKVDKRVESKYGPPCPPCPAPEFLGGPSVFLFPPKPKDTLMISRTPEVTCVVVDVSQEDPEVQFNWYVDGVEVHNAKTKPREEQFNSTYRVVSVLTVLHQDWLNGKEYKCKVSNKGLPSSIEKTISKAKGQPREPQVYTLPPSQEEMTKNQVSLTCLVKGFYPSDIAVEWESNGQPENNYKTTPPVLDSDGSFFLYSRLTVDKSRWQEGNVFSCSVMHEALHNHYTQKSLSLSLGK
light: SYELTQPPSVSVSPGQTARITCSGDALTSKYVAWYQQKSGLAPLLVIYEDTRRPSGIPAKFSGSSSGSVATLTISGAHGDDEADYYCYSTDASGHQRVFGGGTKLTVLSQPKAAPSVTLFPPSSEELQANKATLVCLISDFYPGAVTVAWKADGSPVKAGVETTKPSKQSNNKYAASSYLSLTPEQWKSHRSYSCQVTHEGSTVEKTVAPTECS
notes: pH-dependent anti-C2 antibody from a phage display library; also called WT
With B1, the Fold diff turned out to be 2 fold in experiment [1], 3 fold in experiment [2], 7 fold in experiment [3] and 1 fold in experiment [4].

These data come from US20220332804A1 (CSL INNOVATION, published 2022).
